From patent publication US12076390 (Dana-Farber, dated 2024)

Molecular target: HA on infectious virus A/Brisbane/10/07 (H3N2-BR07) (influenza A virus A/Brisbane/10/07 …)
Assay: cell-based or functional assay

B1: 3I14 VLD94N IgG1 (antibody, V domains shown)
VH: QVQLLESGGGVVQPGRSLRLSCAASGFTFSNYGMHWVRQAPGKGLEWVAIISFDGSKKYYANSVKGRSTISRDNSKNTLSLQMNSLGPEDTALYYCAKLPSPYYFDSRFVWVAASAFHFWGQGILVTVSS
VL: NFMLTQPPSASGTPGQRVTISCSGSSSNIGGNTVHWFQQLPGTAPKLLIYTNSLRPSGVPDRFSGSKSGTSASLAISGLQSEDEADYYCAAWDNSLNGQVFGGGTKLTVL
IC50, neutralization of infectious H3-BR07 virus: 337 ng/mL
